Where no end group is shown, it is not given here.
B1: Phage-2536 (peptide)
peptide: VSPKCIPPWMCSYV
modifications: cysteine pairing not given here; also: fused to phage pIII, linker and fusion site not given here
notes: Clonal phage of the Peptide-180 library, tested as crude supernatant; not shown: pIII coat protein of the bacteriophage to which the peptide is fused
B2: Phage-2538 (peptide)
peptide: EPKWCVPPWMCAYD
modifications: cysteine pairing not given here; also: fused to phage pIII, linker and fusion site not given here
notes: as for B1
B3: Phage-2542 (peptide)
peptide: DLKWCFPDWMCQVG
modifications: cysteine pairing not given here; also: fused to phage pIII, linker and fusion site not given here
notes: as for B1
B4: Phage-2534 (peptide)
peptide: VPKWCIPVWMCEVM
modifications: cysteine pairing not given here; also: fused to phage pIII, linker and fusion site not given here
notes: as for B1
B5: Phage-2635 (peptide)
peptide: DMKWCTPAWMCQSS
modifications: cysteine pairing not given here; also: displayed on phage pIII, linker not given here
notes: Clonal phage of the Peptide-180 library, tested as crude phage supernatant; not shown: pIII filament protein of the bacteriophage
B6: Phage-2532 (peptide)
peptide: EHRWCIPVWMCEKS
modifications: cysteine pairing not given here; also: fused to phage pIII, linker and fusion site not given here
notes: as for B1
B7: Phage-2529 (peptide)
peptide: IVKWCTPHWMCSGW
modifications: cysteine pairing not given here; also: fused to phage pIII, linker and fusion site not given here
notes: as for B1
B8: Phage-2537 (peptide)
peptide: EMKWCIPQWMCADS
modifications: cysteine pairing not given here; also: fused to phage pIII, linker and fusion site not given here
notes: as for B1
B9: Phage-2539 (peptide)
peptide: LMNWCIPSWMCDVE
modifications: cysteine pairing not given here; also: fused to phage pIII, linker and fusion site not given here
notes: as for B1
B10: Phage-2637 (peptide)
peptide: TVKWCTPPWMCEES
modifications: cysteine pairing not given here; also: displayed on phage pIII, linker not given here
notes: as for B5
B11: Phage-2540 (peptide)
peptide: EMKWCTPEWMCIGL
modifications: cysteine pairing not given here; also: fused to phage pIII, linker and fusion site not given here
notes: as for B1
B12: Phage-2533 (peptide)
peptide: PVPLCRPPWMCQSV
modifications: cysteine pairing not given here; also: fused to phage pIII, linker and fusion site not given here
notes: as for B1
B13: Phage-2638 (peptide)
peptide: WAKWCTPVWMCQGI
modifications: cysteine pairing not given here; also: displayed on phage pIII, linker not given here
notes: as for B5
B14: Phage-2527 (peptide)
peptide: LGHWCTPPWMCTES
modifications: cysteine pairing not given here; also: fused to phage pIII, linker and fusion site not given here
notes: as for B1
B15: Phage-2530 (peptide)
peptide: VTHWCIPEWMCVVE
modifications: cysteine pairing not given here; also: fused to phage pIII, linker and fusion site not given here
notes: as for B1
B16: Phage-2541 (peptide)
peptide: PTKWCIPEWMCVES
modifications: cysteine pairing not given here; also: fused to phage pIII, linker and fusion site not given here
notes: as for B1
B17: Phage-2528 (peptide)
peptide: YEKWCTPAWMCDFV
modifications: cysteine pairing not given here; also: fused to phage pIII, linker and fusion site not given here
notes: as for B1
B18: Phage-2634 (peptide)
peptide: TDKLCRPPWMCELM
modifications: cysteine pairing not given here; also: displayed on phage pIII, linker not given here
notes: as for B5
B19: Phage-2531 (peptide)
peptide: YEKWCIPRWMCEAN
modifications: cysteine pairing not given here; also: fused to phage pIII, linker and fusion site not given here
notes: as for B1
B20: Phage-2636 (peptide)
peptide: DDRWCIPTWMCFLD
modifications: cysteine pairing not given here; also: displayed on phage pIII, linker not given here
notes: as for B5
B21: Phage-2535 (peptide)
peptide: DWKWCTPAWMCSTE
modifications: cysteine pairing not given here; also: fused to phage pIII, linker and fusion site not given here
notes: as for B1

Tests used:
[1] = biological target: T1, PSMA Fab; test: clonal phage ELISA on biotinylated PSMA Fab captured on neutravidin plates, anti-M13-HRP detection; blocking buffer alone
T1 construct: Biotinylated and captured on neutravidin plates in the phage ELISA; also called Anti-PSMA Fab; 006 PSMA Fab
Experimental: (§1) Clonal phage were harvested as crude supernatants and screened via standard ELISAs. […] Prior to the addition of clonal phage. wells were incubated with blocking buffer and PSMA antigen or blocking buffer alone. Without washing or aspirating, clonal phage supernatants were then added to the wells and incubated for a short time. Wells were then washed followed by detection of bound phage using a horse radish conjugated anti-M13 antibody.

[2] = biological target: T2, PSMA Fab; test: phage binding ELISA; biotinylated PSMA Fab on neutravidin plate, clonal phage supernatant, anti-M13 HRP detection; column read as anti-PSMA Fab without PSMA antigen
T2 construct: also called Anti-PSMA Fab; 006 PSMA Fab
Experimental: as §1

[3] = biological target: T2, PSMA Fab; test: phage binding ELISA; biotinylated PSMA Fab on neutravidin plate, clonal phage supernatant, anti-M13 HRP detection; column read as anti-PSMA Fab pre-incubated with PSMA antigen as competitor
Experimental: as §1

[4] = biological target: T3, PSMA Fab (006 PSMA Fab) (biotinylated (site not given)); test: clonal phage ELISA; biotinylated PSMA Fab on neutravidin plate, blocking buffer alone; anti-M13 HRP detection;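 note: crude clonal phage supernatants added without washing to wells pretreated with blocking buffer with or without PSMA antigen, short incubation, then washed before detecting bound phage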
T3 construct: also called Anti-PSMA Fab; anti-PSMA Fab

[5] = biological target: T3, PSMA Fab (006 PSMA Fab); test: clonal phage ELISA; biotinylated PSMA Fab on neutravidin plate, wells pre-incubated with PSMA antigen as competitor; anti-M13 HRP detection;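 note: crude clonal phage supernatants added to antigen-treated wells without a wash, incubated briefly, then bound phage read out via horse radish–conjugated anti-M13 antibody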
Experimental: as §1

| Binder | Phage binding ELISA signal, Anti-PSMA Fab [1] | phage binding ELISA signal [2] | phage binding ELISA signal [3] | other results |
| --- | --- | --- | --- | --- |
| B1 | 1.16 |  |  |  |
| B2 | 1.16 |  |  |  |
| LSKWCIPDWMCISS [Phage-2599] |  | 1.04 | 0.0618 |  |
| B3 | 1.15 |  |  |  |
| B4 | 1.16 |  |  |  |
| GMKWCTPEWMCQIV [Phage-2603] |  | 1.03 | 0.28 |  |
| TDKWCVPEWMCMEF [Phage-2591] |  | 1.05 | 0.0773 |  |
| B5 |  |  |  | Phage binding ELISA signal, Anti-PSMA Fab [4]: 0.966; Phage binding ELISA signal, Anti-PSMA Fab with PSMA antigen [5]: 0.0701 |
| MVKWCTPPWMCNFE [Phage-2595] |  | 1.05 | 0.121 |  |
| DGIWCTPRWMCEGM [Phage-2593] |  | 1.05 | 0.0865 |  |
| B6 | 1.16 |  |  |  |
| B7 | 1.17 |  |  |  |
| B8 | 1.16 |  |  |  |
| HFNWCTPSWMCDVL [Phage-2592] |  | 1.05 | 0.118 |  |
| MPRWCTPAWMCEAI [Phage-2590] |  | 1.05 | 0.063 |  |
| MIGWCTPSWMCSGF [Phage-2588] |  | 1.06 | 0.0716 |  |
| B9 | 1.15 |  |  |  |
| B10 |  |  |  | Phage binding ELISA signal, Anti-PSMA Fab [4]: 0.964; Phage binding ELISA signal, Anti-PSMA Fab with PSMA antigen [5]: 0.0943 |
| LVKWCVPDWMCQET [Phage-2598] |  | 1.04 | 0.0671 |  |

| Binder | Phage binding ELISA signal, Anti-PSMA Fab [1] | phage binding ELISA signal [2] | phage binding ELISA signal [3] | other results |
| --- | --- | --- | --- | --- |
| B11 | 1.15 |  |  |  |
| B12 | 1.16 |  |  |  |
| B13 |  |  |  | Phage binding ELISA signal, Anti-PSMA Fab [4]: 0.961; Phage binding ELISA signal, Anti-PSMA Fab with PSMA antigen [5]: 0.136 |
| VHKWCTPAWMCEVH [Phage-2597] |  | 1.04 | 0.0662 |  |
| B14 | 1.17 |  |  |  |
| B15 | 1.17 |  |  |  |
| B16 | 1.15 |  |  |  |
| IEKWCMPSWMCEWN [Phage-2601] |  | 1.03 | 0.0609 |  |
| B17 | 1.17 |  |  |  |
| SVTWCIPPWMCELS [Phage-2600] |  | 1.04 | 0.0673 |  |
| HPQLCIPSWMCNVW [Phage-2594] |  | 1.05 | 0.105 |  |
| VLNWCTPPWMCLGI [Phage-2589] |  | 1.06 | 0.107 |  |
| B18 |  |  |  | Phage binding ELISA signal, Anti-PSMA Fab [4]: 0.966; Phage binding ELISA signal, Anti-PSMA Fab with PSMA antigen [5]: 0.065 |
| ETKLCKPMWMCALL (cysteine pairing not given here; also: displayed on phage as pIII fusion) [Phage-2602] |  | 1.03 | 0.126 |  |
| B19 | 1.16 |  |  |  |
| B20 |  |  |  | Phage binding ELISA signal, Anti-PSMA Fab [4]: 0.965; Phage binding ELISA signal, Anti-PSMA Fab with PSMA antigen [5]: 0.0733 |
| B21 | 1.16 |  |  |  |
| MFKWCTPSWMCERV [Phage-2596] |  | 1.05 | 0.176 |  |

From patent US20260242478A1 (published 2026)
